The target in the experiment is T1, ALEXA FLUOR 488-labeled mouse GAC D391K (constitutive dimer mutant) (mouse, UniProt D3Z7P3 72-555, ALEXA FLUOR 488 succinimidyl ester covalently attached to a lysine amino group within the glutaminase domain (exact residue not given)).
T1 sequence: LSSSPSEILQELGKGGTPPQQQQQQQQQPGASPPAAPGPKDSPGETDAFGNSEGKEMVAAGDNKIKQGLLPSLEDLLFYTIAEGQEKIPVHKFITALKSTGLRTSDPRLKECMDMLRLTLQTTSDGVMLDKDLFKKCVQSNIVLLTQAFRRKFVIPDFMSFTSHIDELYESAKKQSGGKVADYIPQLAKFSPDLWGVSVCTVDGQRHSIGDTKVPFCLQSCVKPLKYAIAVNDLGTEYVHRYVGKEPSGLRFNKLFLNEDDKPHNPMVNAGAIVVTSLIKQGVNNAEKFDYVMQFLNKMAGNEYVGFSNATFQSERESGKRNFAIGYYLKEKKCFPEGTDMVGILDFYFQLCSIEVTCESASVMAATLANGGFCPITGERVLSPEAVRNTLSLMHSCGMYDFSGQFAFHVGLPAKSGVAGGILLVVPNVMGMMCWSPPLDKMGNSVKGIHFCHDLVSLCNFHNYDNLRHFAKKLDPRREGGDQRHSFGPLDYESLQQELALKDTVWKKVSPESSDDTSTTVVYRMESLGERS
Briefly: FRET: 5 nM 488-D391K-GAC titrated with QSY 9-D391K-GAC, fit to a simple ligand binding equation; monomer-monomer association to a dimer. The text has this: FIGS. 10A-B illustrate measuring of the monomer-monomer binding affinity. […] In FIG. 10B, FRET values from FIG. 10A were plotted in a sigma plot and fit to non-linear regression simple ligand binding equation (line).

B1: QSY 9-labeled mouse GAC D391K (constitutive dimer mutant) (enzyme)
chain: T1 sequence
modifications: QSY 9 succinimidyl ester covalently attached to a lysine amino group (exact residue not given)
notes: also called QSY 9-D391K-GAC; QSY 9-GAC (D391K) dimer mutant
In turn, B1 registered a Kd of 2.5 nM.

For the origin of these results see patent US20160002619A1 (CORNELL UNIVERSITY, published 2016).
